Key:
[1] = target: clone nr 1.4 (SEQ ID NO: 3), monoclonal phage; assay: cross reactivity phage ELISA on coated toxin
[2] = target: clone nr 1.1 (SEQ ID NO: 1), monoclonal phage; assay: cross reactivity phage ELISA on coated toxin
[3] = target: clone nr 4.10 (SEQ ID NO: 6), monoclonal phage; assay: cross reactivity phage ELISA on coated toxin
[4] = target: clone nr 1.8 (SEQ ID NO: 4), monoclonal phage; assay: cross reactivity phage ELISA on coated toxin
[5] = target: clone nr 1.9 (SEQ ID NO: 5), monoclonal phage; assay: cross reactivity phage ELISA on coated toxin
[6] = target: clone nr 1.2 (SEQ ID NO: 2), monoclonal phage; assay: cross reactivity phage ELISA on coated toxin
[7] = target: clone nr 1.1 (SEQ ID NO: 1), monoclonal phage; assay: monoclonal phage ELISA on coated myotoxin II
[8] = target: clone nr 4.10 (SEQ ID NO: 6), monoclonal phage; assay: phage ELISA, dilution series 1/10 to 1/1000
[9] = target: clone nr 1.8 (SEQ ID NO: 4), monoclonal phage; assay: phage ELISA, dilution series 1/10 to 1/1000
[10] = target: clone nr 1.9 (SEQ ID NO: 5), monoclonal phage; assay: phage ELISA, dilution series 1/10 to 1/1000
[11] = target: TAMRA-labeled JB006; assay: fluorescence polarization with TAMRA-labeled JB006

Measured: binding result

B1: α-cobra toxin (a-cbtx) from Naja kaouthia (other)
chain: IRCFITPDITSKDCPNGHVCYTKTWCDAFCSIRGKRVDLGCAATCPTVKTGVDIQCCSTDNCNPFPTRKRP
binds: [1] | [2] | [3] | [4] | [5] | [6]

B2: Myotoxin II from venom of Bothrops asper (other)
chain: SLFELGKMILQETGKNPAKSYGAYGCNCGVLGRGKPKDATDRCCYVHKCCYKKLTGCNPKKDRYSYSWKDKTIVCGENNSCLKELCECDKAVAICLRENLNTYNKKYRYYLKPLCKKADAC
binds: [7] | [1] | [6] | [8] | [9] | [10] | [11]

Source: patent publication US20210070804A1 (published 2021)
